Laboratory results as given in the supplement of paper PMC10065799, “High-throughput profiling of sequence recognition by tyrosine kinases and SH2 domains using bacterial peptide display” (eLife, 2023).

Legend:
AncSZ = test: phosphorylation enrichment, bacterial display (enrichment ratio); higher = better substrate or ligand; peptides without Tyr show the background
EPHB1 = EPHB1 (UniProt P54762); test: as above
EPHB2 = EPHB2 (UniProt P29323); test: as above
FGFR1 = FGFR1 (UniProt P11362); test: as above
FGFR3 = FGFR3 (UniProt P22607); test: as above
Fer (mouse) = test: as above
Fes = Fes (UniProt P07332); test: as above
Fyn = Fyn (UniProt P06241); test: as above
Hck = Hck (UniProt P08631); test: as above
Jak2 = Jak2 (UniProt O60674); test: as above
MERTK = MERTK (UniProt Q12866); test: as above
c-Abl (mouse) = test: as above
c-Src = test: as above
Grb2 SH2 = Grb2 SH2 (UniProt P62993); test: SH2 binding enrichment of the phosphorylated peptide, bacterial display (enrichment ratio); higher = better substrate or ligand; peptides without Tyr show the background
SHP2-C SH2 = test: as above
c-Src SH2 = test: as above
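For SH2 binding enrichment of the phosphorylated peptide, bacterial display in this document: peptide library displayed on the E. coli surface as eCPX fusions, selected cells deep-sequenced, score is each peptide's frequency after selection divided by its frequency in the input.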
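For phosphorylation enrichment, bacterial display in this document: 11-residue human phosphosite peptides and single-mutation variants displayed on the E. coli surface, counted by deep sequencing, each peptide's frequency after selection divided by its frequency in the unselected input library; frequency after pTyr selection over input frequency; kinase dosed for 20-30% of maximal phosphorylation in three min.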

Sequence of FGFR3 (P22607 whole entry, looked up): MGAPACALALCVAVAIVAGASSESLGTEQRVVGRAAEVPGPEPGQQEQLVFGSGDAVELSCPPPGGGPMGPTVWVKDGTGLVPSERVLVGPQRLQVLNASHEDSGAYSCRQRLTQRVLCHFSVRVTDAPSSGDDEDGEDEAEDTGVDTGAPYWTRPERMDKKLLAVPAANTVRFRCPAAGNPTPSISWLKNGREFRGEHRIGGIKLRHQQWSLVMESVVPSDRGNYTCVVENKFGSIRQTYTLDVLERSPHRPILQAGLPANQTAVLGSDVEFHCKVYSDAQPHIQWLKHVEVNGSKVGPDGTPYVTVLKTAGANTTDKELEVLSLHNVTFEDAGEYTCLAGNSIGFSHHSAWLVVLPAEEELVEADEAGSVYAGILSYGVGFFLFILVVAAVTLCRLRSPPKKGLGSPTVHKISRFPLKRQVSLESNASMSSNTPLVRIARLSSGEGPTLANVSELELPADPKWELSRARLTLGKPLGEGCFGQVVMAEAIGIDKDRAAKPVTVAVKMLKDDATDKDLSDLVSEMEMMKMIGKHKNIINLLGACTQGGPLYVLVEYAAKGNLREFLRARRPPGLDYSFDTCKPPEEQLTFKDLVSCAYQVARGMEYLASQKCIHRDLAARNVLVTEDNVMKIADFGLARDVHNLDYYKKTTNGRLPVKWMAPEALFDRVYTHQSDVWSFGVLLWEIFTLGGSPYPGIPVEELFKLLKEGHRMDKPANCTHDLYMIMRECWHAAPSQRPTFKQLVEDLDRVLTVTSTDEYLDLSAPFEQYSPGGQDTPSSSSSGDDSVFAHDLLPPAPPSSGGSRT
Sequence of Jak2 (O60674 whole entry, looked up): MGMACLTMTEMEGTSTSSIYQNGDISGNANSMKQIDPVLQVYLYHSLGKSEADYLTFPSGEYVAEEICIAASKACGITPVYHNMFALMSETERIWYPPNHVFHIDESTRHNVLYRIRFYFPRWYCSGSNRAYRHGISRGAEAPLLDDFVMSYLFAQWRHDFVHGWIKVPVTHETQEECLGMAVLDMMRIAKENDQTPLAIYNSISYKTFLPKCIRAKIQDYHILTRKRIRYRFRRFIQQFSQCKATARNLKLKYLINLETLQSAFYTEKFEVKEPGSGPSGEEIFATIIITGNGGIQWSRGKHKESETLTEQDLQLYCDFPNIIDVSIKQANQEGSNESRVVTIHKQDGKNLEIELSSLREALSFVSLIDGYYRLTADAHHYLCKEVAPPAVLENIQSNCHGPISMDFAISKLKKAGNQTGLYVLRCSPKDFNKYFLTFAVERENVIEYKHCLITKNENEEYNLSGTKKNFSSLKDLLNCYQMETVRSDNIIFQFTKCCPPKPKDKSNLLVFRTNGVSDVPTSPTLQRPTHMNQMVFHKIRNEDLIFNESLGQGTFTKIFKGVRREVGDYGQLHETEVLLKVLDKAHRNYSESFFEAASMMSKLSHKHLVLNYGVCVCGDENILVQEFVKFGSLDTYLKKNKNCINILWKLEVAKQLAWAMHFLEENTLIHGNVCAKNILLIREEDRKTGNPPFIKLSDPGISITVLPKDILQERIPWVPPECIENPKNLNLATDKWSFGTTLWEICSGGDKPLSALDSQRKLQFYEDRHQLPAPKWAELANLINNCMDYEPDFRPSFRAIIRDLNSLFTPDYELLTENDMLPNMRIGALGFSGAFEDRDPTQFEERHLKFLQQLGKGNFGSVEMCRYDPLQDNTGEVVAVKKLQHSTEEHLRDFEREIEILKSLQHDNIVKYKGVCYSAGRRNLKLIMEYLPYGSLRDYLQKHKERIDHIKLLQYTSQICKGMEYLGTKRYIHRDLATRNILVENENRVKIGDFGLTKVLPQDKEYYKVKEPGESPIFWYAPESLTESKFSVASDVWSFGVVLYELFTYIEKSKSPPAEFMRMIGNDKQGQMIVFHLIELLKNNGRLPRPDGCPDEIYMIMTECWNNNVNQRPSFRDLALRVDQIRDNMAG
Sequence of EPHB1 (P54762 whole entry, looked up): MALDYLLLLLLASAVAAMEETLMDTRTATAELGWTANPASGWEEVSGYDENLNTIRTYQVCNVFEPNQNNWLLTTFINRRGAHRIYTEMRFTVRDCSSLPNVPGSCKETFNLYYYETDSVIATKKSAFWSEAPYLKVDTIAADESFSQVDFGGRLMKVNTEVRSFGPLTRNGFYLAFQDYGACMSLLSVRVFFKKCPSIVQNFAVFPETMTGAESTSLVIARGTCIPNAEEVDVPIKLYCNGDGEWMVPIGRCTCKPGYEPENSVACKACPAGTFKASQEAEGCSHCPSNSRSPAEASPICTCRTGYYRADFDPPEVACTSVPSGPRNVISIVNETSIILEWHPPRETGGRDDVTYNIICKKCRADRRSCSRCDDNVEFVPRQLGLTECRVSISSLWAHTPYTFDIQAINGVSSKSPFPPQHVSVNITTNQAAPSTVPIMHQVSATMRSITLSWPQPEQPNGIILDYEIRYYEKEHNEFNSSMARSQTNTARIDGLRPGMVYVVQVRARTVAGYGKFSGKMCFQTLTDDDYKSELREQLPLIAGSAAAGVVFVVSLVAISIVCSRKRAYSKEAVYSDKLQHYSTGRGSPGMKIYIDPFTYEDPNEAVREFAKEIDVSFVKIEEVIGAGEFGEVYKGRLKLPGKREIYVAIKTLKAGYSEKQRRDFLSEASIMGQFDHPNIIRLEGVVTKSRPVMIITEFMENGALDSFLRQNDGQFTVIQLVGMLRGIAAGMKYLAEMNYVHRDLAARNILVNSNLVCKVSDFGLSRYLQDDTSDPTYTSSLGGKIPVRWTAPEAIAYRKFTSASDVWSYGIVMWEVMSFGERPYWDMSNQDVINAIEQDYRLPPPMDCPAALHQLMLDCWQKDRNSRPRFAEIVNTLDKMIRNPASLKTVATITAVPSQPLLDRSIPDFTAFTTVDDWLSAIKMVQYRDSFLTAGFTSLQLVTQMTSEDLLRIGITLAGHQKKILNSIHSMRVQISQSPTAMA
Sequence of EPHB2 (P29323 whole entry, looked up): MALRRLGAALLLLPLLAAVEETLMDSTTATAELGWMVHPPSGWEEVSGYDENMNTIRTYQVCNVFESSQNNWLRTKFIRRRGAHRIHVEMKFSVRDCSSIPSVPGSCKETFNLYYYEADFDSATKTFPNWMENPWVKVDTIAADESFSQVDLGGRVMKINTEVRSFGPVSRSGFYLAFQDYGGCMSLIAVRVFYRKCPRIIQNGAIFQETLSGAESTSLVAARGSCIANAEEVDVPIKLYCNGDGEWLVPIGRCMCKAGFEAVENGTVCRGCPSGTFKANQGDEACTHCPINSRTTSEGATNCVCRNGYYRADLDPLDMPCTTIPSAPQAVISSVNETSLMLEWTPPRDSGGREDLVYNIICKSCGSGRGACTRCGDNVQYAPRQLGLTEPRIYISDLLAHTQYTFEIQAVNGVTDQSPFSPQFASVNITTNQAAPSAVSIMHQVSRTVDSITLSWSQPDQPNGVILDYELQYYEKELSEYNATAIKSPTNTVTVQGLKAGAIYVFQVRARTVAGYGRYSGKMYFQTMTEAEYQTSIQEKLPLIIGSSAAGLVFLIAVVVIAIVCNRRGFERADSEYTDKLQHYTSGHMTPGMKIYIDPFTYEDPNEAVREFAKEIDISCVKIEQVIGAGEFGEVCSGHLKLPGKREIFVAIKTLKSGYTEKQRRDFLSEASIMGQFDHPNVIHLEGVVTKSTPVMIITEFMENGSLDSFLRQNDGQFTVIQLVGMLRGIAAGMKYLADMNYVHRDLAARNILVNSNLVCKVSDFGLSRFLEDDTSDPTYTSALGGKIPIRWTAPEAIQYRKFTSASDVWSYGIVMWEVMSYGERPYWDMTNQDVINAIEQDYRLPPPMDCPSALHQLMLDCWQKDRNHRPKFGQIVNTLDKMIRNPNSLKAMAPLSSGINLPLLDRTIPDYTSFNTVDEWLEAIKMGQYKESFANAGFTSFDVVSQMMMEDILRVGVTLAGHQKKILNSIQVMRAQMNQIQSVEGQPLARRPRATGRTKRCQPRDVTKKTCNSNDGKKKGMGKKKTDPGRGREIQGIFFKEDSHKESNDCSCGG
Sequence of FGFR1 (P11362 whole entry, looked up): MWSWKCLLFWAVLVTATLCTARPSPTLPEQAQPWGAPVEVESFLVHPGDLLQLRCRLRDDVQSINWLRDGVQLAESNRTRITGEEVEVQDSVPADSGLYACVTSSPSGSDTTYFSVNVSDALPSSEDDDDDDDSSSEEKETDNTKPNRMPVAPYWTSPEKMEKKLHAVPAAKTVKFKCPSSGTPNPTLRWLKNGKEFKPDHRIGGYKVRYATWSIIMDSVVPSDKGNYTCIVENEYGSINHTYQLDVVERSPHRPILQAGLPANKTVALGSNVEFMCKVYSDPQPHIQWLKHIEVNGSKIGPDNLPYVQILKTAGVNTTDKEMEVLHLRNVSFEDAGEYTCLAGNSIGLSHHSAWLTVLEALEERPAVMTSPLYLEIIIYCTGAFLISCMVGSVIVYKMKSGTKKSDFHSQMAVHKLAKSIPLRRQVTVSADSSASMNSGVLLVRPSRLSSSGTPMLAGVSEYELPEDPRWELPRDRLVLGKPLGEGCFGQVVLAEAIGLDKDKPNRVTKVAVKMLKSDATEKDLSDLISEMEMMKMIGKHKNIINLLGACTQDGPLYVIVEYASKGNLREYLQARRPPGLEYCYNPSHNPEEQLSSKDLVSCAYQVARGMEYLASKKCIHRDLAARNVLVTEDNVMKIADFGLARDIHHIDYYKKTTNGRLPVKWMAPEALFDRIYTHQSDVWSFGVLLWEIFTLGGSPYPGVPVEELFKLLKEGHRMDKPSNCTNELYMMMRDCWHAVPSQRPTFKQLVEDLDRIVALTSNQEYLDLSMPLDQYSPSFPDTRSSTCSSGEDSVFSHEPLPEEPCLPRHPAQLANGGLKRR
Sequence of Grb2 SH2 (P62993 whole entry, looked up): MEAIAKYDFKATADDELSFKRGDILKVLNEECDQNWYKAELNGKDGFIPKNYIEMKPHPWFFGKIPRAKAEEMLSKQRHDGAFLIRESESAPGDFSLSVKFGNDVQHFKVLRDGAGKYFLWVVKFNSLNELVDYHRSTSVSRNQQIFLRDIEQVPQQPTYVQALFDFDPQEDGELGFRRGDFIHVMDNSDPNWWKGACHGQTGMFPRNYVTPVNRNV

| Sequence | phosphorylation enrichment (AncSZ) | phosphorylation enrichment (EPHB1) | phosphorylation enrichment (EPHB2) | phosphorylation enrichment (FGFR1) | phosphorylation enrichment (FGFR3) | phosphorylation enrichment (Fer (mouse)) | phosphorylation enrichment (Fes) | phosphorylation enrichment (Fyn) | phosphorylation enrichment (Hck) | phosphorylation enrichment (Jak2) | phosphorylation enrichment (MERTK) | phosphorylation enrichment (c-Abl (mouse)) | phosphorylation enrichment (c-Src) | SH2 binding enrichment (Grb2 SH2) | SH2 binding enrichment (SHP2-C SH2) | SH2 binding enrichment (c-Src SH2) |
| --- | --- | --- | --- | --- | --- | --- | --- | --- | --- | --- | --- | --- | --- | --- | --- | --- |
| ARRMEYLASQK [FGFR2_Y616_G613R] | 0.461 | 0.947 | 0.558 | 0.372 | 0.437 | 0.293 | 0.557 | 0.367 | 0.333 | 0.367 | 0.402 | 0.286 | 0.382 | 1.09 | 0.464 | 0.469 |
| ASRKYYAMKIL [AKT3_Y174_G171R] | 0.505 | 0.367 | 0.338 | 0.475 | 0.535 | 0.441 | 0.634 | 0.348 | 0.368 | 0.385 | 0.437 | 0.379 | 0.265 | 1.1 | 1.14 | 1.18 |
| ASSPVYVPTTR [GATA6_Y188] | 0.525 | 0.397 | 0.479 | 0.323 | 0.428 | 0.406 | 0.539 | 0.429 | 0.646 | 0.44 | 0.493 | 0.524 | 0.51 | 0.876 | 0.71 | 0.433 |
| ATCKAYGQALA [TKT_Y321_R318C] | 0.753 | 0.523 | 0.446 | 0.445 | 0.573 | 0.484 | 0.73 | 0.424 | 0.431 | 0.645 | 0.419 | 0.568 | 0.493 | 0.899 | 0.631 | 0.453 |
| ATDLAYFLVRK [ASL_Y375_YF] | 1.73 | 0.73 | 0.872 | 1.26 | 1.32 | 0.509 | 1.6 | 0.725 | 0.686 | 2.72 | 0.642 | 1.2 | 0.728 | 2.04 | 1.84 | 1.18 |
| ATGGFYSFGGG [KRT24_Y120_YF] | 0.678 | 0.7 | 0.499 | 0.481 | 0.502 | 2.46 | 0.953 | 3.93 | 1.83 | 0.706 | 7.38 | 0.562 | 1.83 | 0.749 | 0.569 | 0.425 |
| ATKNDYWAMLA [WWOX_Y287_P282A] | 1.17 | 1.72 | 1.15 | 6.01 | 3.97 | 0.452 | 1 | 0.384 | 0.453 | 1.02 | 0.499 | 0.881 | 0.418 | 0.677 | 0.752 | 0.497 |
| AVLSLCASGRT [ACTA2_Y145_Y145C] | 0.898 | 0.58 | 0.639 | 0.505 | 0.592 | 0.545 | 0.955 | 0.366 | 0.448 | 0.959 | 0.402 | 0.606 | 0.357 | 0.807 | 0.857 | 0.488 |
| CDIPRYIVSQL [MAST2_Y461] | 1.04 | 0.535 | 0.577 | 0.497 | 0.618 | 0.454 | 1.02 | 0.506 | 0.482 | 1.04 | 0.501 | 0.816 | 0.442 | 0.744 | 0.654 | 0.406 |
| CEAVEYLESKQ [BTK_Y511_M509V] | 1.3 | 0.546 | 0.802 | 0.534 | 0.875 | 0.564 | 1.41 | 0.443 | 0.613 | 1.32 | 0.384 | 0.738 | 0.52 | 0.929 | 0.643 | 0.539 |
| CFSSEYHFVGG [CTSC_Y345_Y340C_YF] | 2.64 | 1.87 | 1.96 | 10.4 | 7.23 | 0.753 | 1.11 | 0.992 | 1.35 | 1.61 | 2.02 | 1.19 | 1.85 | 0.944 | 0.694 | 0.652 |
| CGTPEYRAPEI [PRKACA_Y205_L206R] | 1.17 | 0.687 | 0.605 | 0.603 | 0.825 | 0.582 | 1.35 | 0.517 | 0.549 | 0.984 | 0.467 | 3.88 | 0.432 | 0.767 | 0.735 | 0.52 |
| CGTPTYLAPEV [CHEK2_Y390] | 2.38 | 1.18 | 1.39 | 1.12 | 1.04 | 0.564 | 1.34 | 0.627 | 0.776 | 1.9 | 0.816 | 7.74 | 0.639 | 0.878 | 0.785 | 0.582 |
| CLAKMYFSAVD [CP_Y539_YF] | 1.04 | 0.662 | 0.592 | 0.519 | 0.765 | 0.506 | 1.26 | 0.519 | 0.527 | 1.06 | 0.414 | 1.03 | 0.563 | 0.895 | 0.608 | 0.606 |
| CLRIDYERVSQ [DSP_Y1542_R1537C] | 1.23 | 1.48 | 1.03 | 0.574 | 1.04 | 0.674 | 1.57 | 0.524 | 0.631 | 1.38 | 0.475 | 0.96 | 0.517 | 0.816 | 0.599 | 0.567 |
| CPTIHYNYMCN [TP53_Y234_T230P] | 0.843 | 0.603 | 0.607 | 0.54 | 0.586 | 0.621 | 0.999 | 0.594 | 0.429 | 0.776 | 0.462 | 0.634 | 0.462 | 1.02 | 4.49 | 8.28 |
| CRVEPYGENFN [APOA4_Y310_R305C] | 1.28 | 0.675 | 0.651 | 0.603 | 0.869 | 0.649 | 1.57 | 0.441 | 0.608 | 1.28 | 0.583 | 1.1 | 0.616 | 0.703 | 0.712 | 0.675 |

| Sequence | phosphorylation enrichment (AncSZ) | phosphorylation enrichment (EPHB1) | phosphorylation enrichment (EPHB2) | phosphorylation enrichment (FGFR1) | phosphorylation enrichment (FGFR3) | phosphorylation enrichment (Fer (mouse)) | phosphorylation enrichment (Fes) | phosphorylation enrichment (Fyn) | phosphorylation enrichment (Hck) | phosphorylation enrichment (Jak2) | phosphorylation enrichment (MERTK) | phosphorylation enrichment (c-Abl (mouse)) | phosphorylation enrichment (c-Src) | SH2 binding enrichment (Grb2 SH2) | SH2 binding enrichment (SHP2-C SH2) | SH2 binding enrichment (c-Src SH2) |
| --- | --- | --- | --- | --- | --- | --- | --- | --- | --- | --- | --- | --- | --- | --- | --- | --- |
| CSRRFYQLTKL [AR_Y858] | 0.79 | 0.407 | 0.548 | 0.455 | 0.528 | 0.468 | 0.718 | 0.462 | 0.507 | 0.698 | 0.448 | 0.508 | 0.527 | 0.663 | 0.488 | 0.406 |
| CSRRLYQLTKL [AR_Y858_F857L] | 0.666 | 0.451 | 0.59 | 0.517 | 0.456 | 0.499 | 0.769 | 0.621 | 0.858 | 0.794 | 0.558 | 0.728 | 0.657 | 0.641 | 0.449 | 0.524 |
| CTAIHYNFMCN [TP53_Y234_T231A_YF] | 0.814 | 0.622 | 0.526 | 0.598 | 0.614 | 0.461 | 0.909 | 0.442 | 0.597 | 0.863 | 0.38 | 0.735 | 0.525 | 1.33 | 1.73 | 2.01 |
| CTLSVYRQLHN [LUZP1_Y1036] | 1.1 | 0.622 | 0.631 | 0.513 | 0.823 | 0.536 | 1.29 | 0.466 | 0.456 | 1.07 | 0.435 | 0.771 | 0.412 | 0.655 | 0.608 | 0.464 |
| CTTIHYDYMCN [TP53_Y234_N235D] | 1.31 | 0.644 | 0.723 | 0.687 | 0.631 | 1.17 | 0.994 | 0.657 | 0.635 | 1.03 | 0.591 | 0.708 | 0.675 | 0.983 | 1.48 | 8.99 |
| CTTIHYIFMCN [TP53_Y234_N235I_YF] | 0.946 | 0.511 | 0.554 | 0.416 | 0.657 | 0.436 | 1.05 | 0.418 | 0.331 | 0.918 | 0.327 | 0.695 | 0.324 | 1.19 | 1.1 | 0.858 |
| CTTIHYNFICN [TP53_Y234_M237I_YF] | 0.895 | 0.554 | 0.59 | 0.554 | 0.775 | 0.672 | 1.23 | 0.464 | 0.454 | 1.25 | 0.439 | 0.787 | 0.595 | 2 | 2.05 | 2.34 |
| CTTIHYNFMRN [TP53_Y234_C238R_YF] | 1.03 | 0.605 | 0.626 | 0.567 | 0.993 | 0.571 | 1.07 | 0.568 | 0.577 | 0.889 | 0.489 | 0.767 | 0.449 | 0.949 | 0.896 | 0.773 |
| CTTIHYNYMSN [TP53_Y234_C238S] | 0.793 | 0.503 | 0.594 | 0.499 | 0.629 | 0.664 | 0.844 | 0.396 | 0.434 | 0.756 | 0.502 | 0.501 | 0.399 | 0.934 | 0.873 | 1.65 |
| CTTIHYNYRCN [TP53_Y234_M237R] | 0.797 | 0.594 | 0.54 | 0.502 | 0.713 | 0.455 | 1.03 | 0.498 | 0.497 | 0.832 | 0.465 | 0.726 | 0.522 | 1.5 | 1.39 | 1.36 |
| DAASNYARGHF [TUBA3E_Y103_YF] | 0.503 | 0.502 | 0.514 | 0.41 | 0.526 | 0.403 | 0.584 | 0.398 | 0.47 | 0.604 | 0.465 | 0.537 | 0.394 | 0.688 | 0.844 | 0.458 |
| DAMQTYNGNDE [TSPAN7_Y131] | 1.01 | 0.637 | 0.576 | 0.508 | 0.837 | 0.531 | 1.11 | 0.55 | 0.494 | 1.03 | 0.585 | 0.653 | 0.685 | 0.654 | 0.613 | 0.71 |
| DCAAIYGNEPD [AKR1A1_Y50_E55D] | 1.35 | 0.668 | 0.726 | 0.638 | 0.957 | 0.672 | 1.64 | 1.02 | 1.09 | 1.25 | 0.585 | 0.978 | 1.65 | 1.11 | 0.813 | 0.982 |
| DDLEVYLKHLL [SACS_Y3477] | 1.03 | 0.505 | 0.503 | 0.479 | 0.697 | 0.653 | 0.97 | 0.482 | 0.58 | 0.822 | 0.409 | 0.61 | 0.558 | 0.752 | 0.605 | 0.544 |
| DDPRTYQKYGY [OAS1_Y362_R361T] | 0.74 | 0.458 | 0.611 | 0.446 | 0.555 | 0.41 | 0.76 | 0.43 | 0.492 | 0.635 | 0.421 | 0.572 | 0.549 | 0.866 | 0.833 | 0.598 |
| DDSSAYCSVDE [BCKDHA_Y345_R346C] | 1.32 | 0.621 | 0.505 | 0.544 | 0.692 | 0.521 | 1 | 0.55 | 0.58 | 0.978 | 0.505 | 0.712 | 0.535 | 1 | 0.727 | 1.21 |
